Columns and labels:
[1] = biological target: T1, complex of HEL peptide and MHC class II molecule (I-A^k) on 293 T cells (Mus musculus, UniProt P01910+P06343); assay: Flow cytometry of serum IgG from HEL protein-immunized mice binding to 293 T cells expressing I-A^k pulsed with HEL peptides
T1 construct: α-chain of mouse MHC class II molecule (I-A^k); β-chain of mouse MHC class II molecule (I-A^k); expressed in transfected cells; host or cells: 293T cells (pME18S vectors, co-transfected with pMX-GFP)
Source text: From mouse spleen cDNA, polynucleotides encoding the α-chain and the β-chain of a mouse MHC class II molecule (I-A^k) shown below were cloned into pME18S vectors, respectively. Thus, a mouse MHC class II molecule (I-A^k) α-chain expression vector (I-A^k a expression vector) and a mouse MHC class II molecule (I-A^k) β-chain expression vector (I-A^k β expression vector) were produced. As a GFP expression vector, pMX-GFP (obtained from the Division of Cellular Therapy in the Advanced Clinical Research Center of the Institute of Medical Science, the University of Tokyo) was used.
293T cells (obtained from RIKEN BioResource Center) were used as host cells to which the above-described expression vectors were to be introduced. First, the 293 T cells were seeded in a 24-well plate at a density of 2×10^5 cells/500 μl/well. Next, the expression vectors were introduced to the 293T cells using a PEI max solution obtained by dissolving a transfection 5 reagent (PEI max, Cosmo Bio Co., Ltd.) in purified water at a concentration of 2 mg/ml. Specifically, a mixture of 2 μl of the PEI max solution and 50 μl of a serum-free medium (OPTI-MEM®, GIBCO) was added to 50 μl of a serum-free medium containing 0.26 μg of the I-A^k c expression vector, 0.26 μg of the I-A^k f expression vector, and 0.26 μg of the GFP expression vector. Then, they were mixed together, whereby a transfection reagent was prepared. Thereafter, the transfection reagent was added to each well to introduce the expression vectors to the 293 T cells. After the introduction, the 293 T cells were cultured in a DMEM medium at 37° C. for 12 hours. Next, each of HEL peptides shown in Table 3 below was added to the wells at a concentration of 20 μmol/l. The 293 T cells were cultured for another 24 hours under the above-described culture conditions, whereby the 293 T cells were pulsed with the HEL peptide. The cultured 293 T cells were collected from the wells. Thereafter, the collected 293 T cells were used in antibody detection to be described below. The HEL peptides used in the present example and the following examples were obtained from SCRUM Inc., Eurofins Genomics K.K., or GenScript. In the HEL protein, a T-cell epitope presented by the MHC class II molecule I-A^k is a peptide consisting of the amino acid sequence of SEQ ID NO: 1 (DGSTDYGILQINSR). Thus, among the HEL peptides shown in Table 3 below, HEL peptide 41-70 corresponds to the immunizing peptide.
100 μg of a HEL protein (Sigma) was mixed with a complete Freund's adjuvant (CFA, Sigma), and the resultant mixture was administered subcutaneously to mice (B10.A strain). Two weeks after the administration, whole blood was collected from each mouse, and serum was collected from the whole blood.
The serum collected from each of the HEL protein-immunized mice was diluted 100-fold with a HANKS' BALANCED SALT SOLUTION (HBSS, Sigma) to obtain a diluted serum. Next, 10 μl of the diluted serum was added to the 293 T cells obtained in the above item (1) to cause a reaction. The 293 T cells after the reaction were washed, and then stained with an APC-labeled anti-mouse IgG (H+L) antibody (code-number: 715-136-150, Jackson ImmunoResearch). Thereafter, the stained 293 T cells were analyzed by flow cytometry (FACSCalibur™, Becton Dickinson) (peptide non-added groups). As peptide added groups, the HEL peptides shown in Table 3 above were added to the diluted serums, respectively, at a concentration of 40 μmol/l. Then, the diluted serums containing the respective HEL peptides were added to the 293 T cells pulsed with the corresponding HEL peptides to cause a reaction. Except for the above, the peptide added groups were analyzed by the flow cytometry analysis in the same manner.
Peptide non-added groups were analyzed by flow cytometry in the same manner as in the above item (3), except that, instead of the HEL peptides shown in Table 3 above, the HEL peptide 41-70, the HEL peptide 48-61, and HEL peptides shown in Table 4 below were used. […]

[2] = biological target: T2, 3A9 TCR / complex of HEL antigen and I-A^k on LK35.2 cells (Mus musculus, UniProt P01910+P06343); assay: Immunization of mice with HEL protein or HEL peptides; serum inhibition of soluble single-chain 3A9 TCR binding to HEL protein-pulsed LK35.2 cells; type: in vivo, mice (B10.A strain); details: immunogen with CFA subcutaneously; serum two weeks after administration
T2 construct: LK35.2 cells expressing I-A^k (the MHC class II molecule); endogenous in cells; host or cells: LK35.2 cells (I-A^k); the 3A9 scTCR-Fc is culture supernatant of transfected 293T cells
Protocol: 30 nmol of the HEL peptide 41-70 or the HEL peptide 48-61 was mixed with a complete Freund's adjuvant. Each of the thus-obtained mixture was administered subcutaneously to mice (B10.A strain). Two weeks after the administration, whole blood was collected from each mouse, and serum was collected from the whole blood.
LK35.2 cells were pulsed with the HEL protein in the same manner as in the item (2) in Example 1B, except that the HEL protein was added instead of the HEL protein, the HEL peptide 41-70, and the HEL peptide 48-61. The cultured LK35.2 cells were collected from the wells. Thereafter, the collected LK35.2 cells were used in inhibition of TCR recognition by an antibody to be described below.
Flow cytometry analysis was performed in the same manner as in the item (3) in Example 1B, except that serums of the HEL peptide 41-70-immunized mice or serums of the HEL peptide 48-61-immunized mice were used in addition to the serums of the HEL protein-immunized mice and that the LK35.2 cells obtained in the item (1) in Example 2B were used instead of the LK35.2 cells obtained in the item (2) in Example 1B. As Control 1, the flow cytometry analysis was performed in the same manner, except that serums collected from non-immunized mice were used instead of the serums of the HEL protein-immunized mice, the serums of the HEL peptide 41-70-immunized mice, and the serums of the HEL peptide 48-61-immunized mice. As Control 2, the flow cytometry analysis was performed in the same manner, except that the HEL protein was not added.
30 nmol of the HEL peptide 48-77 (Y53A L56A) was mixed with a complete Freund's adjuvant, and the resultant mixture was administered subcutaneously to mice (B10.A strain). Two weeks after the administration, whole blood was collected from each mouse, and serum was collected from the whole blood.
Flow cytometry analysis was performed in the same manner as in the item (3) in Example 1B, except that serums of the HEL peptide 48-77 (Y53A L56A)-immunized mice were used in addition to the serums of the HEL protein-immunized mice and that the LK35.2 cells obtained in the item (2) in Example 4 were used instead of the LK35.2 cells obtained in the item (2) in Example 1B. As controls, the flow cytometry analysis was performed in the same manner, except that serums collected from non-immunized mice were used instead of the serums of the HEL protein-immunized mice and the serums of the HEL peptide 48-77 (Y53A L56A)-immunized mice.

[3] = peptide added groups: same HEL peptide added to diluted serum at 40 μmol/l, serum of HEL protein-immunized mice
[4] = peptide non-added groups, serum of HEL protein-immunized mice diluted 100-fold, I-A^k 293 T cells pulsed with 20 μmol/l peptide

T1 sequence (P01910 24-256): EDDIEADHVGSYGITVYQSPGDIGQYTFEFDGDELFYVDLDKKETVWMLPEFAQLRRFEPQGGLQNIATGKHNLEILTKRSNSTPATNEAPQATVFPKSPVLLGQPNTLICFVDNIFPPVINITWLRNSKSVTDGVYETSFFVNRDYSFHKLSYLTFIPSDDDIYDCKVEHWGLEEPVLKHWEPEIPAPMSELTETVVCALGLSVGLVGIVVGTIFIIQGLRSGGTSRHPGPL
T1 sequence (P06343 28-263): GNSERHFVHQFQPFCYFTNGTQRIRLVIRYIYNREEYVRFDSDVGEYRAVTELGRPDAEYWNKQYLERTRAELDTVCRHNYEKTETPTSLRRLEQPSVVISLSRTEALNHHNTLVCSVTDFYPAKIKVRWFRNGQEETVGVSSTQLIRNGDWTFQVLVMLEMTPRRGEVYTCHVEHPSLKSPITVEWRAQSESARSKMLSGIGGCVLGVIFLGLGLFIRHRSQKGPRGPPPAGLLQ
T2 sequence (P01910 24-256): as the sequence (P01910 24-256) above
T2 sequence (P06343 28-263): as the sequence (P06343 28-263) above

Row | serum IgG binding to 293 T cells pulsed with the HEL peptide [1, 3] | serum IgG binding to 293 T cells pulsed with the HEL peptide [1, 4] | binding of soluble single-chain TCR to LK35.2 cells pulsed with HEL protein after reaction with serums of mice immunized with the substance [2] | Sequence
1 | not observed | not observed | observed | DGSTDYGILQINSR (Gallus gallus domesticus) [HEL peptide 48-61, reference compound]
2 | observed | observed | not observed | QATNRNTDGSTDYGILQINSRWWCNDGRTP (Gallus gallus domesticus) [HEL peptide 41-70]

Source: patent publication US20190336589A1, “IMMUNIZING PEPTIDE, METHOD FOR PRODUCING IMMUNIZING PEPTIDE, PHARMACEUTICAL COMPOSITION FOR IMMUNE DISEASE CONTAINING SAME, AND METHOD FOR TREATING IMMUNE DISEASE” (OSAKA UNIVERSITY, priority 2015, published 2019)
